Experiments:
Format in all cases: biochemical, Escherichia blattae
Details in all cases: other: transphosphorylation, 100 mM sodium pyrophosphate, 10–100 mM inosine, pH 4, 30° C., 10 min, cell free extract, Hanes-Woolf
[1] = substrate: OC[C@H]1O[C@@H](n2cnc3c(O)ncnc32)[C@H](O)[C@@H]1O; assay: Km for inosine, transphosphorylation by S72E/G74D/I153T mutant EB-AP
Procedure: (§1) In order to construct a mutant EB-AP for expression in Escherichia coli JM109, a plasmid pEPI340 containing a gene for G74D/I153T mutant EB-AP was used as a template for site-directed mutagenesis utilizing PCR. The nucleotide sequences of these plasmids pEPI305 and pEPI340 are disclosed in Japanese Patent Laid-open (Kokai) No. 10-201481/1998, paragraph (0143), Table 12. […]
(§2) Then, the Km value for inosine in the transphosphorylation reaction by each 3-residue replaced mutant EB-AP was measured under the following conditions. […] After 200 μl of 1 N hydrochloric acid was added to stop the reaction, the precipitates were removed by centrifugation, and the produced 5′-inosinic acid was quantified. The Km value was calculated by the Hanes-Woolf plotting.
(§3) 5′-Inosinic acid was analyzed by high performance liquid chromatography (HPLC) under the following conditions. • Column: Cosmosil 5C18-AR (4.6×150 mm), produced by Nakarai Tesque • Mobile phase: 5 mM potassium phosphate buffer (pH 2.8)/methanol=95/5 • Flow rate: 1.0 ml/min • Temperature: room temperature • Detection: UV 245 nm

[2] = substrate: OC[C@H]1O[C@@H](n2cnc3c(O)ncnc32)[C@H](O)[C@@H]1O; assay: Km for inosine, transphosphorylation by A72F/10-residue replaced mutant EB-AP
Procedure: Then, the Km value for inosine in the transphosphorylation reaction by each 3-residue replaced mutant EB-AP was measured under the following conditions. A reaction mixture (1 ml) containing 100 mM sodium pyrophosphate, 100 mM acetate buffer (pH 4.0), 10–100 mM inosine and 100 μl of the cell free extract was incubated at pH 4 and 30° C. for 10 minutes. After 200 μl of 1 N hydrochloric acid was added to stop the reaction, the precipitates were removed by centrifugation, and the produced 5′-inosinic acid was quantified. The Km value was calculated by the Hanes-Woolf plotting.
as §3
The S72F mutation that decreased the Km value in the highest degree and the S72E mutation that enhanced the activity in the highest degree in Example 12 were introduced into the 10-residue replaced mutant EB-AP. Since Ser72 was replaced with Ala in the 10-residue replaced mutant EB-AP, the A72F and A72E mutations were actually introduced. […] Furthermore, transphosphorylation activity and reaction rate constant were measured by the method described in Example 12. […]

[3] = substrate: OC[C@H]1O[C@@H](n2cnc3c(O)ncnc32)[C@H](O)[C@@H]1O; assay: Km for inosine, transphosphorylation by S72Y/G74D/I153T mutant EB-AP
Procedure: as §1, §2, §3

[4] = substrate: OC[C@H]1O[C@@H](n2cnc3c(O)ncnc32)[C@H](O)[C@@H]1O; assay: Km for inosine, transphosphorylation by G74D/I153T mutant EB-AP
[5] = substrate: OC[C@H]1O[C@@H](n2cnc3c(O)ncnc32)[C@H](O)[C@@H]1O; assay: Km for inosine, transphosphorylation by S72V/G74D/I153T mutant EB-AP
Procedure: as §1, §2, §3

[6] = substrate: OC[C@H]1O[C@@H](n2cnc3c(O)ncnc32)[C@H](O)[C@@H]1O; assay: Km for inosine, transphosphorylation by S72F/G74D/I153T mutant EB-AP
Procedure: as §1, §2, §3

[7] = substrate: OC[C@H]1O[C@@H](n2cnc3c(O)ncnc32)[C@H](O)[C@@H]1O; assay: Km for inosine, transphosphorylation by S72D/G74D/I153T mutant EB-AP
Procedure: as §1, §2, §3

[8] = substrate: OC[C@H]1O[C@@H](n2cnc3c(O)ncnc32)[C@H](O)[C@@H]1O; assay: Km for inosine, transphosphorylation by S72T/G74D/I153T mutant EB-AP
Procedure: as §1, §2, §3

[9] = substrate: OC[C@H]1O[C@@H](n2cnc3c(O)ncnc32)[C@H](O)[C@@H]1O; assay: Km for inosine, transphosphorylation by 10-residue replaced mutant EB-AP
[10] = substrate: OC[C@H]1O[C@@H](n2cnc3c(O)ncnc32)[C@H](O)[C@@H]1O; assay: Km for inosine, transphosphorylation by S72W/G74D/I153T mutant EB-AP
Procedure: as §1, §2, §3

[11] = substrate: OC[C@H]1O[C@@H](n2cnc3c(O)ncnc32)[C@H](O)[C@@H]1O; assay: Km for inosine, transphosphorylation by S72M/G74D/I153T mutant EB-AP
Procedure: as §1, §2, §3

B1: Escherichia blattae acid phosphatase (EB-AP, SEQ ID NO: 2 / 124) mutant S72E/G74D/I153T (Shimwellia blattae; G92D/I171T/S90E) (protein)
chain: LVATGNDTTTKPDLYYLKNSEAINSLALLPPPPAVGSIAFLNDQAMYEQGRLLRNTERGKLAAEDANLSEGDVANAFSGAFGSPITEKDAPALHKLLTNMIEDAGDLATRSAKDHYMRIRPFAFYGVSTCNTTEQDKLSKNGSYPSGHTSTGWATALVLAEINPQRQNEILKRGYELGQSRVICGYHWQSDVDAARVVGSAVVATLHTNPAFQQQLQKAKAEFAQHQKK
Km [1]: 40 mM

B2: Escherichia blattae acid phosphatase (EB-AP, SEQ ID NO: 2 / 124) mutant A72F/10-residue replaced (L63Q/A65Q/E66A/N69D/S71A/S72A/G74D/T135K/E136D/I153T with … (protein)
chain: LVATGNDTTTKPDLYYLKNSEAINSLALLPPPPAVGSIAFLNDQAMYEQGRLLRNTERGKQAQADADLAFGDVANAFSGAFGSPITEKDAPALHKLLTNMIEDAGDLATRSAKDHYMRIRPFAFYGVSTCNTKDQDKLSKNGSYPSGHTSTGWATALVLAEINPQRQNEILKRGYELGQSRVICGYHWQSDVDAARVVGSAVVATLHTNPAFQQQLQKAKAEFAQHQKK
Km [2]: 9 mM

B3: Escherichia blattae acid phosphatase (EB-AP, SEQ ID NO: 2 / 124) mutant S72Y/G74D/I153T (Shimwellia blattae; G92D/I171T/S90Y) (protein)
chain: LVATGNDTTTKPDLYYLKNSEAINSLALLPPPPAVGSIAFLNDQAMYEQGRLLRNTERGKLAAEDANLSYGDVANAFSGAFGSPITEKDAPALHKLLTNMIEDAGDLATRSAKDHYMRIRPFAFYGVSTCNTTEQDKLSKNGSYPSGHTSTGWATALVLAEINPQRQNEILKRGYELGQSRVICGYHWQSDVDAARVVGSAVVATLHTNPAFQQQLQKAKAEFAQHQKK
Km [3]: 25 mM

B4: Escherichia blattae acid phosphatase (EB-AP, SEQ ID NO: 2 / 124) mutant G74D/I153T (Shimwellia blattae; G92D/I171T) (protein)
chain: LVATGNDTTTKPDLYYLKNSEAINSLALLPPPPAVGSIAFLNDQAMYEQGRLLRNTERGKLAAEDANLSSGDVANAFSGAFGSPITEKDAPALHKLLTNMIEDAGDLATRSAKDHYMRIRPFAFYGVSTCNTTEQDKLSKNGSYPSGHTSTGWATALVLAEINPQRQNEILKRGYELGQSRVICGYHWQSDVDAARVVGSAVVATLHTNPAFQQQLQKAKAEFAQHQKK
Km [4]: 100 mM

B5: Escherichia blattae acid phosphatase (EB-AP, SEQ ID NO: 2 / 124) mutant S72V/G74D/I153T (Shimwellia blattae; G92D/I171T/S90V) (protein)
chain: LVATGNDTTTKPDLYYLKNSEAINSLALLPPPPAVGSIAFLNDQAMYEQGRLLRNTERGKLAAEDANLSVGDVANAFSGAFGSPITEKDAPALHKLLTNMIEDAGDLATRSAKDHYMRIRPFAFYGVSTCNTTEQDKLSKNGSYPSGHTSTGWATALVLAEINPQRQNEILKRGYELGQSRVICGYHWQSDVDAARVVGSAVVATLHTNPAFQQQLQKAKAEFAQHQKK
Km [5]: 40 mM

B6: Escherichia blattae acid phosphatase (EB-AP, SEQ ID NO: 2 / 124) mutant S72F/G74D/I153T (Shimwellia blattae; G92D/I171T/S90F) (protein)
chain: LVATGNDTTTKPDLYYLKNSEAINSLALLPPPPAVGSIAFLNDQAMYEQGRLLRNTERGKLAAEDANLSFGDVANAFSGAFGSPITEKDAPALHKLLTNMIEDAGDLATRSAKDHYMRIRPFAFYGVSTCNTTEQDKLSKNGSYPSGHTSTGWATALVLAEINPQRQNEILKRGYELGQSRVICGYHWQSDVDAARVVGSAVVATLHTNPAFQQQLQKAKAEFAQHQKK
Km [6]: 20 mM

B7: Escherichia blattae acid phosphatase (EB-AP, SEQ ID NO: 2 / 124) mutant S72D/G74D/I153T (Shimwellia blattae; G92D/I171T/S90D) (protein)
chain: LVATGNDTTTKPDLYYLKNSEAINSLALLPPPPAVGSIAFLNDQAMYEQGRLLRNTERGKLAAEDANLSDGDVANAFSGAFGSPITEKDAPALHKLLTNMIEDAGDLATRSAKDHYMRIRPFAFYGVSTCNTTEQDKLSKNGSYPSGHTSTGWATALVLAEINPQRQNEILKRGYELGQSRVICGYHWQSDVDAARVVGSAVVATLHTNPAFQQQLQKAKAEFAQHQKK
Km [7]: 33 mM

B8: Escherichia blattae acid phosphatase (EB-AP, SEQ ID NO: 2 / 124) mutant S72T/G74D/I153T (Shimwellia blattae; G92D/I171T/S90T) (protein)
chain: LVATGNDTTTKPDLYYLKNSEAINSLALLPPPPAVGSIAFLNDQAMYEQGRLLRNTERGKLAAEDANLSTGDVANAFSGAFGSPITEKDAPALHKLLTNMIEDAGDLATRSAKDHYMRIRPFAFYGVSTCNTTEQDKLSKNGSYPSGHTSTGWATALVLAEINPQRQNEILKRGYELGQSRVICGYHWQSDVDAARVVGSAVVATLHTNPAFQQQLQKAKAEFAQHQKK
Km [8]: 50 mM

B9: Escherichia blattae acid phosphatase (EB-AP, SEQ ID NO: 2 / 124) 10-residue replaced mutant L63Q/A65Q/E66A/N69D/S71A/S72A/G74D/T135K/E136D/I153T (Shimwellia … (protein)
chain: LVATGNDTTTKPDLYYLKNSEAINSLALLPPPPAVGSIAFLNDQAMYEQGRLLRNTERGKQAQADADLAAGDVANAFSGAFGSPITEKDAPALHKLLTNMIEDAGDLATRSAKDHYMRIRPFAFYGVSTCNTKDQDKLSKNGSYPSGHTSTGWATALVLAEINPQRQNEILKRGYELGQSRVICGYHWQSDVDAARVVGSAVVATLHTNPAFQQQLQKAKAEFAQHQKK
Km [9]: 40 mM

B10: Escherichia blattae acid phosphatase (EB-AP, SEQ ID NO: 2 / 124) mutant S72W/G74D/I153T (Shimwellia blattae; G92D/I171T/S90W) (protein)
chain: LVATGNDTTTKPDLYYLKNSEAINSLALLPPPPAVGSIAFLNDQAMYEQGRLLRNTERGKLAAEDANLSWGDVANAFSGAFGSPITEKDAPALHKLLTNMIEDAGDLATRSAKDHYMRIRPFAFYGVSTCNTTEQDKLSKNGSYPSGHTSTGWATALVLAEINPQRQNEILKRGYELGQSRVICGYHWQSDVDAARVVGSAVVATLHTNPAFQQQLQKAKAEFAQHQKK
Km [10]: 30 mM

B11: Escherichia blattae acid phosphatase (EB-AP, SEQ ID NO: 2 / 124) mutant S72M/G74D/I153T (Shimwellia blattae; G92D/I171T/S90M) (protein)
chain: LVATGNDTTTKPDLYYLKNSEAINSLALLPPPPAVGSIAFLNDQAMYEQGRLLRNTERGKLAAEDANLSMGDVANAFSGAFGSPITEKDAPALHKLLTNMIEDAGDLATRSAKDHYMRIRPFAFYGVSTCNTTEQDKLSKNGSYPSGHTSTGWATALVLAEINPQRQNEILKRGYELGQSRVICGYHWQSDVDAARVVGSAVVATLHTNPAFQQQLQKAKAEFAQHQKK
Km [11]: 46 mM

Reference: patent US6987008B1, “Variant nucleoside-5′-phosphate producing enzyme” (priority 1999, dated 2006)
